Results: patent publication US20240254203A1

Target: SARS COV-1 spike protein (SARS COV-1) (UniProt P59594)
Experiment: cell-based or functional assay

soluble 80R scFv, sequence (VH): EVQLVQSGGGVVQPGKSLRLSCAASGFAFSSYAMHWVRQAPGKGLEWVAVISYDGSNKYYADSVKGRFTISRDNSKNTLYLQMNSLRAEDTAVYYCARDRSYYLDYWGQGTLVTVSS
soluble 80R scFv, sequence (VL): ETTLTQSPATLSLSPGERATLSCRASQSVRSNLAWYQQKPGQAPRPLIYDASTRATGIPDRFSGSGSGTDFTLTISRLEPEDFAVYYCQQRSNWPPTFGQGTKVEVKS

soluble 80R scFv
IC50, neutralization of SARS COV-1 by the soluble scFv: 7.43 nM
